Eleven molecules from patent US20150086555A1 can be followed below.

What all share (conditions): remark: other sources report otherwise
For test [1], the target named is T1, recombinant soluble homotrimeric HA of A/common magpie/Hong Kong/5052/07 (H5N1) (Influenza A virus A/common magpie/Hong Kong/5052/2007(H5N1)). In words: trimeric HA microarray, transfection supernatant set 4.
The target of test [2] is T1, recombinant soluble homotrimeric HA of …. The test is described as follows: HA microarray, BCC supernatant.
Test [3] has as its target recombinant homotrimeric HA A/common magpie/Hong Kong/5052/07 H5N1 (Influenza A virus A/common magpie/Hong Kong/5052/2007(H5N1)). The test is described as follows: protein microarray, purified IgG, trimeric HA.
Test [4] addresses T1, recombinant soluble homotrimeric HA of …. The test is described as follows: trimeric HA microarray, transfection supernatant set 5.
For test [5] the target is unchanged. The test is described as follows: trimeric HA microarray, transfection supernatant set 3.
The target is the same in test [6]. In words: trimeric HA microarray, transfection supernatant set 2.
Test [7] deals with recombinant soluble homotrimeric HA, A/common magpie/Hong Kong/5052/07 H5N1 (Influenza A virus A/common magpie/Hong Kong/5052/2007(H5N1)). The test is described as follows: microarray, transfection SN IgG, trimeric HA.
Test [8] addresses T1, recombinant soluble homotrimeric HA of …. In words: trimeric HA microarray, transfection supernatant set 1.
For test [9] the target is unchanged.
Test [10] has the same target. In words: HA microarray, control antibody.

Like-named read-outs stand apart in the source and are kept apart here.

B1: TCN-534 (5249_B02) (antibody, V domains shown)
VH: QVQLVQSGAEVKKPGSSVKVSCRESGGTFNGYTITWVRQAPGQGLEWMGGIIPMMGTVNYAQKLQGRVTITTDYFTKTAYMDLNNLRSEDTAMYYCVKIRYTGQQLLWGQGTLVTVSS
VL: DIQMTQSPSTLSASIGDRVTITCRASQSIASWLAWYQQKPGKAPKLLIYEAVNLESGVPSRFSGSGSGTDFTLTISSLQPDDFATYFCQHYGTISQTFGGGTKVEIK
B1: the Trimeric HA Binding: RLU in test [1] worked out at 127 RLU; in [2], 32500 RLU; in test [3], 16500 RLU.

B2: TCN-536 (5095_N01) (antibody, V domains shown)
VH: QVQLQQWGAGLLKPSETLSLTCAVYGGSFSVSGYYWSWIRQPPGRGLEWIGEISHGGSTNYNPSLKSRVTISVDTTKNQFSLRLSSVTAADTAVYYCARGTDPDTEVYCRVGNCAAFDYWGQGSLVTVSS
VL: EIILAQSPGTLSLSPGERATLSCRASQFVSTRSLAWYQQRPGQAPRLLIYGASSRATGIPDRFSGSGSGTDFTLTISRLEPEDFAVYYCQHYGYSPRYAFGQGSKVEIK
Turning to B2, the figures for the Trimeric HA Binding: RLU in test [1] and in [3] were 27 RLU and 794 RLU, respectively.

B3: TCN-540 (5060_F05) (antibody, V domains shown)
VH: QVQLVQSGGGVVQPGRSLRLSCAASGFTFSSYAMHWVRQAPGKGLEWVAIISYDGNDQYYTDSVKGRFTISRDSSKVYLQMHRLRPEDTAVYYCAKEFETSGYFHGSFDYWGQGILVTVSS
VL: QSALTQPASVSGSPGQSITISCTGTSSDVGGYNYVSWYQQHPGKAPKLLIYEVTNWPSGVSNRFSGSKSGNTASLTISGLQAEDEADYYCSSYAGSSTWVFGGGTRVTVL
For the molecule B3, the Trimeric HA Binding: RLU worked out at 1800 RLU in [4], 113 RLU in [2] and 799 RLU in test [3].

B4: TCN-530 (5248_H10a) (antibody, V domains shown)
VH: QVQLVQSGAEVRKPGSSVKVSCKASGGPFMSYAIGWVRQAPGQGLEWMGGINPVFGRPHYAQKFQGRVTIATDDSTKTSYMELSSLTSEDTGMYYCASRYSRSSPGTFESWGQGTLVTVSS
VL: EIVMTQFPATLSVSPGERVTLSCRASQSVSNNLAWYQQKPGQPPRLLIYDASTRATGVPAKFSGTGSGTEFTLSISSLQSEDFAVYYCQQYHNWPPSYSFGLGTKLEIK
For the molecule B4, the Trimeric HA Binding: RLU in [5] amounted to 5580 RLU; in test [2], 42500 RLU; in test [3], 10300 RLU.

B5: TCN-523 (5248_A17) (antibody, V domains shown)
VH: QVQLVQSGAEVKKPGSSVKVSCKASGGSFSNYAFSWVRQAPGQGLEWMGGTIPLLGTTNYAQKFQGRVTISADQFTSTAYMELGSLRSEDTAVYYCTRRKMTTAFDSWGQGTLVTVSS
VL: QPVLTQPPSASASLGASVTLTCTLSSAYSNYKVDWYQQRPGKGPRFVMRVGTGGIVGSKGDGIPDRFSVLGSGLNRYLTIKNIQEEDESDYHCGADHGSGSNFVSPYVFGGGTKLTVL
On to B5, for which the Trimeric HA Binding: RLU in test [6] stood at 7210 RLU; in test [7], 33900 RLU; in [8], 6240 RLU; in [5], 640 RLU; in [1], 2130 RLU; in test [2] it was 45800 RLU. In addition, in [3], the Trimeric HA Binding: RLU is 20900 RLU.

B6: TCN-563 (5237_B21) (antibody, V domains shown)
VH: QVQLAQSGAEVKRPGSSVKVSCTASGGIFRKNAISWVRQAPGQGLEWMGGIIAVFNTANYAQKFQGRVKITADESGNTAYMELSSLRSDDTAVYYCASHPKYFYGSGSYPDFWGQGTLVTVSS
VL: QSALTQPRSVSGSPGQSVTISCTGSSSDVGASNSVSWYQQHPGKAPKLVIYDVTERPSGVPHRFSGSKSGNTASLTVSGLQPEDEADYFCCAYGGKYLVVFGGGTKVTVL
B6: the results for the Trimeric HA Binding: RLU in test [9], in test [6] and in test [2] were 20000 RLU, 52800 RLU and 27500 RLU, respectively.

B7: TCN-564 (5256_A17b) (antibody, V domains shown)
VH: QVQLVQSGADVKKPGSSVTVSCKASGGSFSNYGINWVRQAPGQGLEWMGGIIPLINAPNYAPKFQGRVTITADMFSNIVSLQLTSLRTDDTAVYYCARRKMTTAIDYWGQGTLVTVSS
VL: QPVLSQPPSASASLGASVTLTCTLSSGFDNYQVAWYQQRPGKGPRFVMRVGNGGNVASKGDGIPDRFSVSGSGLNRYLTIKNIQEDDESDYYCGADHGSGNNFVSPYVFGGGTKLTVL
For B7, the Trimeric HA Binding: RLU in test [9] worked out at 20800 RLU.

B8: TCN-538 (3206_O17) (antibody, V domains shown)
VH: QITLKESGPTLVKPTQTLTLTCVFSGFSLSITGVRVGWIRQPPGKALEWLALISWDDEKHYSPSLQSRLTITKDTSKNQVVLTMTNLDPVDTATYYCARSTDRGHVLRYFGWMLPGDAFDVWGQGTMVTVSS
VL: DIVMTQSPDFLPVSLGERATINCKSSQRVLYSSNNKNYLAWYQLKPGQPPKLIIYWASTRESGVPDRFSGSGSGTEFTLTISSLQAEDVAVYYCQQYYSRPYTFGQGTKLEIK
As to B8, the Trimeric HA Binding: RLU in test [4] amounted to 3140 RLU; in [2] it was 18700 RLU; in test [3], 5140 RLU.

B9: TCN-504 (3251_K17) (antibody, V domains shown)
VH: QVQLQESGPGLVKPSETLSLTCAVSGVSISNIDFYWGWIRQPPGKGLEWIGNIYYTGITFYNPSLSSRVAISIDTSKNQFSLTLTSVTAADTAMYYCARHYGDSEAINDAFDIWGQGTMLTVSS
VL: EIVMTQSPATLSVSPGERATLSCRASQSVGNSLAWYQQRPGQAPRLLIYGASTRATGIPPRFSGSGSGTEFTLTISSLQTEDFAVYYCQQYINWRPLSFGGGTKVEIK
As for B9, the Trimeric HA Binding: RLU in [6] is 16800 RLU; in test [10], 17000 RLU; in [7], 37300 RLU; in [8], 29700 RLU; in test [5] it was 17800 RLU; in test [1], 8680 RLU.

B10: TCN-531 (5091_H13) (antibody, V domains shown)
VH: EVQLVESGGDLVQPGRSLKLSCTGSGFTFGDYGVTWVRQAPGKGLEWVGFIRTRPWGGTADTAASVKGRFTISRDDSKSLAYLQMNSLKTEDTAVYYCCRDAPPNVEVASMTNWYFDLWGRGTLVTVSS
VL: DIQLTQSPSSLSASVGDRVTITCRASQGILNCLAWYQQKPGKVPNLLMYAASTLQSGVPSRFSGSGFGTDFTLTISSLQPEDVATYYCQTYGGVSTFGGGTKVEIR
Consider B10, for which the Trimeric HA Binding: RLU came out at 37 RLU in [5] and 674 RLU in test [3].

B11: TCN-535 (5246_P19) (antibody, V domains shown)
VH: QVQLVQSGSEVKKPGTSVKVSCTASGSVFTNYGISWVRQAPGQGLEWMGGIIPLFGAAKYAQKFQGRVTITADESTKTVYMELSRLTSKDTAIYFCAKAPRVYEYYFDQWGQGTPVTVSS
VL: EIVLTQSPGTLSLSPGERATLSCRASQSVSSSQLAWYQQKPGQAPRLIIYGASTRATGIPDRFSGSGSGTDFTLTIGRLEPEDFAVFFCQQYSTSPPTFGQGTKVDFK
Regarding B11, the Trimeric HA Binding: RLU was 477 RLU in [1], 45900 RLU in test [2] and 20400 RLU in test [3].
